Source: patent publication CN113929774A (INST MICROBIOLOGY CAS, dated 2022)

Target: SARS-CoV-2南非株(B.1.351)活病毒的S蛋白 (SARS-CoV-2 B.1.351)
Test: cell-based or functional assay

B1: 9K抗体 (antibody, V domains shown)
VH: EVQLVESGGGVVQPGRSLGLSCAVSGFTFSSYAMHWVRQAPGKGLEWVALISNDGTIDSYADSVKGRFTISRDNSKNTLYLRMSSLRAEDTAVYYCARDKEQLVPTFDYWGQGTLVTVSS
VL: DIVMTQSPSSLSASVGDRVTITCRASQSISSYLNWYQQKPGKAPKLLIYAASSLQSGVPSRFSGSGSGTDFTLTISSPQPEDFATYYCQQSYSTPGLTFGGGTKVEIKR
Which “中和滴度(半抑制浓度，IC50), live virus CPE assay on Vero E6 cells” value does the source give for B1 here?
Its value is 11.5 µg/mL.
